From publication PMC12225155 come the findings set out here.

For the assay, the target named is importin α5 (UniProt P52294). Kind of assay: co-immunoprecipitation, western blot. Conditions: reference: KIAA1429-WT; sites S1579.

Turning to “KIAA1429 (VIRMA) (from UniProt Q69YN4) KIAA1429-SA (S1579A)”, the “binding against the reference” value is “stronger”.
